Assay results published in patent US20040171005A1, “Codon-optimised nucleic acid coding for apoaequorin and uses thereof” (priority 2001, published 2004).

B1: Codon optimised: Codon-optimised (humanised) apoaequorin coding sequence SEQ ID NO: 3 with HA1 epitope, in pcDNA3 expression plasmid (nucleic acid)
DNA: ATGAAGCTGACCCCCGACTTCGACAACCCCAAGTGGATCGGCCGCCACAAGCACATGTTCAACTTCCTGGACGTGAACCACAACGGCCGCATCAGCCTGGACGAGATGGTGTACAAGGCCAGCGACATCGTGATCAACAACCTGGGCGCCACCCCCGAGCAGGCCAAGCGCCACAAGGACGCCGTGGAGGCCTTCTTCGGCGGCGCCGGCATGAAGTACGGCGTGGAGACGGAGTGGCCCGAGTACATCGAGGGCTGGAAGCGCCTGGCCTCCGAGGAACTGAAGCGCTACAGCAAGAACCAGATCACCCTGATCCGCCTGTGGGGCGACGCCCTGTTCGACATCATCGACAAGGACCAGAACGGCGCCATCTCCCTGGATGAGTGGAAGGCCTACACCAAGTCCGTCGGCATCATCCAGTCCTCCGAGGACTGCGAGGAGACGTTCCGCGTGTGCGACATCGACGAGAGCGGCCAGCTGGACGTGGACGAGATGACCCGCCAGCACCTGGGCTTCTGGTACACCATGGACCCCGCCTGCGAGAAGCTGTACGGCGGCGCCGTGCCCTAA
modifications: HA1 epitope fused, in pcDNA3; humanised apoaequorin
B2: Wild type: Wild-type jellyfish apoaequorin gene SEQ ID NO: 2 with HA1 epitope in pcDNA3, used as control (nucleic acid, listed as Aequorea victoria)
DNA: ATGAAGCTTACATCAGACTTCGACAACCCAAGATGGATTGGACGACACAAGCATATGTTCAATTTCCTTGATGTCAACCACAATGGAAAAATCTCTCTTGACGAGATGGTCTACAAGGCATCTGATATTGTCATCAATAACCTTGGAGCAACACCTGAGCAAGCCAAACGACACAAAGATGCTGTAGAAGCCTTCTTCGGAGGAGCTGGAATGAAATATGGTGTGGAAACTGATTGGCCTGCATATATTGAAGGATGGAAAAAATTGGCTACTGATGAATTGGAGAAATACGCCAAAAACGAACCAACGCTCATCCGTATATGGGGTGATGCTTTGTTTGATATCGTTGACAAAGATCAAAATGGAGCCATTACACTGGATGAATGGAAAGCATACACCAAAGCTGCTGGTATCATCCAATCATCAGAAGATTGCGAGGAAACATTCAGAGTGTGCGATATTGATGAAAGTGGACAACTCGATGTTGATGAGATGACAAGACAACATTTAGGATTTTGGTACACCATGGATCCTGCTTGCGAAAAGCTCTACGGTGGAGCTGTCCCCTAA
modifications: HA1 epitope fused, in pcDNA3

Legend:
[1] = system: HEK293 cells; experiment: Aequorin luminescence (calcium flux) after Ionomycin stimulation of transiently transfected cells; format: cell-based; conditions: for Peak Relative Light Units (RLU) following Ionomycin Stimulation: HEK293 cells transiently transfected, 48 hours post transfection; for fold increase in RLU relative to wild type aequorin: number in parenthesis; for fold increase in luminescent output (RLU) with the codon optimised aequorin: text summary over 1 and 2 μM CaCl2, Ionomycin stimulation, versus wild type
Experimental: CHOK1 and Phoenix (HEK293 derived) cells were grown in Ham's F12 and DMEM respectively. The medium was supplemented with10% foetal calf serum, 2 mM glutamine, penicillin and streptomycin 100 μg/ml.
Cells were seeded in Costar 6 well plates at a density of 5×10^5 18-24 hours prior to transfection. On the day of transfection the cells were 85-90% confluent. Plasmids, cytaeqHA1(9aa)pcDNA3#2 and hucytaeqHA(9aa)pcDNA3#20, were transfected into the cells using Lipofectamine Plus reagents. A co-transfection with EGFP (Clontech) allowed transfection variation between wells to be ascertained. A modification to the standard protocol from Life Technologies was used. In summary, 2 μg of DNA (1 μg of each for co-transfections) diluted in 400 μl of HamsF12+12 μl lipofectamnine plus reagent was incubated for 15 minutes at room temperature. 8 μl of Lipofectamine reagent +400 μl of HamsF12 medium was also incubated for 15 minutes at room temperature. The two mixtures were combined and incubated for a further 15 minutes before being aspirated onto the cells containing 1.6 mls of Ham's F12 medium. The plates were incubated for 3 hours at 37° C. 5% CO2. The transfection reagents were replaced with Ham's F12 complete medium and the cells incubated for 24 hours. At 24 hours the cells were transferred to 96 well plates. 48 hours post transfection the 96 wells were rinsed in PBS and replaced with 50 μl of DMEM (without phenol red) containing 1% heat inactivated FCS and 2.5 μm hcp coelenterazine. The cells were incubated at 37° C. 5% CO2 for 3 hours. The wells were aspirated of the coelenterazine mix and replaced with 175 μl of PBS containing either 1 μM or 2 μM CaCl2. The plates were transferred to Tropix TR717 luminometer for stimulation. 2 μM of ionomycin (25 μl), a calcium ionophore, was injected into the wells and the reaction recorded over 60 seconds. 1:
Numbers in parenthesis represent the fold increase in RLU relative to wild type aequorin.

[2] = system: HEK 293 cells; experiment: Immunoblotting of HA-tagged aequorin expression (3F10 antibody, pixel quantification); format: cell-based; conditions: western blot against HA epitope; HEK 293 lysates 48 hours post transfection; ImageQuant pixel quantification
Experimental: Expression of recombinant protein was verified by immuoblotting using Anti-HA-Peroxidase, High Affinity (3F10) monoclonal antibody (Roche). This antibody recognizes the HA peptide sequence […] derived from the […] hemagglutinin protein (Kolodziej &Young, Methods Enzymol. 194:508-511, […]). HEK 293 cells were transiently transfected with the codon optimised and the wild type aequorin constructs. Cell lysates were prepared 48 hours post transfection, proteins (130 μg) separated by SDS-PAGE electrophoresis, transferred to nylon membrane and stained with a 1:500 dilution of 3F10 antibody. Protein expression was quantitated using pixel quantification in ImageQuant software (Molecular Dynamics) and indicated a 8-fold increase in expression of cythuAEQ over cytAEQ.

Molecule | Peak Relative Light Units (RLU) following Ionomycin Stimulation ([1]; 1 μM CaCl2) [RLU] | fold increase in RLU relative to wild type aequorin ([1]; 1 μM CaCl2) [fold] | Peak Relative Light Units (RLU) following Ionomycin Stimulation ([1]; 2 μM CaCl2) [RLU] | fold increase in RLU relative to wild type aequorin ([1]; 2 μM CaCl2) [fold] | fold increase in luminescent output (RLU) with the codon optimised aequorin ([1]; listed as codon optimised aequorin) | fold increase in luminescent output (RLU) with the codon optimised aequorin ([1]; listed as codon-optimised sequence) [fold] | fold increase in expression over non-humanised (wild type) aequorin [2] [fold]
B1 | 18008 | 19 | 15561 | 21 | 19-21 fold | > 20 | ~8
B2 | 944 |  | 734 |  |  |  | 
